Like-named read-outs stand apart in the source and are kept apart here. Bridges are numbered along the chain shown (N, C = ends). Where no end group is shown, it is not given here.
Legend:
Experiment in all cases: SPR
[1] = target: T1, human MuSK (human, UniProt O15146)
T1 chain: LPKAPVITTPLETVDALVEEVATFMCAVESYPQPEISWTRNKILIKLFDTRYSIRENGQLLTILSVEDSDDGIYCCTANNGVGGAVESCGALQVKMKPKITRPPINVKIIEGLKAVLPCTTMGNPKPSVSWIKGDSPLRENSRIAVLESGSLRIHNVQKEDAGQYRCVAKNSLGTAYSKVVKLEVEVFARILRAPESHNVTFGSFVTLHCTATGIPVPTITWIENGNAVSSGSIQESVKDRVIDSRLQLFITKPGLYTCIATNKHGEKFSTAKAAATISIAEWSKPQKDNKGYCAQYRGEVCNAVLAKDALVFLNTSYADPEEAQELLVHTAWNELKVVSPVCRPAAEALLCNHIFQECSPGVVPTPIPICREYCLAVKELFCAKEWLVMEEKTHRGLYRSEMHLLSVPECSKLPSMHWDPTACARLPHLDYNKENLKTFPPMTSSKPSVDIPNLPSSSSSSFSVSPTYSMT

[2] = target: T1, human MuSK
[3] = target: T1, human MuSK
[4] = target: T2, mouse MuSK (mouse, UniProt Q61006)
T2 chain: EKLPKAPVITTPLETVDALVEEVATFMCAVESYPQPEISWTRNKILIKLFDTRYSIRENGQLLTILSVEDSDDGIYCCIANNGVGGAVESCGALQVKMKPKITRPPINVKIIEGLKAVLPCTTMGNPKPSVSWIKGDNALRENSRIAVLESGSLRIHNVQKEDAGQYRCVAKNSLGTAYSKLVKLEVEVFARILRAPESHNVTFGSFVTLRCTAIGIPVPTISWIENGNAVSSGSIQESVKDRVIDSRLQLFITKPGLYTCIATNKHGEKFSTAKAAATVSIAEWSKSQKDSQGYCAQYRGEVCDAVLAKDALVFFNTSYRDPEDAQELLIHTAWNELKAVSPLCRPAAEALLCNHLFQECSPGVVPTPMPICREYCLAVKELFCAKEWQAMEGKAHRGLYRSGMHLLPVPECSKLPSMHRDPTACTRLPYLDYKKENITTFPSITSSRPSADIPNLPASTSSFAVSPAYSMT

[5] = target: T3, rat MuSK (rat, UniProt Q62838)
T3 chain: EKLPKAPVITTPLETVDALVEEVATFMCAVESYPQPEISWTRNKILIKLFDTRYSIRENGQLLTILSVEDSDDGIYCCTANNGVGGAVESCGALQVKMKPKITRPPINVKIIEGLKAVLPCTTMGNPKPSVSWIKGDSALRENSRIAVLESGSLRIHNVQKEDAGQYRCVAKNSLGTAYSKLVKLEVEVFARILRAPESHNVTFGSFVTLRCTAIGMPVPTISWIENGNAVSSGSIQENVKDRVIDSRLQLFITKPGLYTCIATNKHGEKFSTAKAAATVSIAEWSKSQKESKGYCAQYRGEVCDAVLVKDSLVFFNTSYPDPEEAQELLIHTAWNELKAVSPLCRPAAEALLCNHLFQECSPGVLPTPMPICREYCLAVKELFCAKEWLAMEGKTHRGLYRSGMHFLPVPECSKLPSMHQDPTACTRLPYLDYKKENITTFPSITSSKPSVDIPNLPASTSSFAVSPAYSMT

## {CH2CO}-YPSYHTNVVASLKRC (thioether N-15 (inferred); not fully specified (C-terminus)) [MuSK7]
[1]
  Kd: 160 nM

B1: MuSK4 PEG11 dimer (peptide)
chain 1: YFPTNVVSLLKSC
chain 2: YFPTNVVSLLKSC
modifications: not fully specified (N-terminus, C-terminus, bridges); cysteine pairing not given here; also: homodimer via Bis-Mal-dPEG11 linker, attachment not given here
[2]
  Kd: 6.9 nM

B2: MuSK1Ac Term PEG11 dimer (protein)
chain 1: YLPEFSWPESFVLFLRQRQRQLGRGAE
chain 2: YLPEFSWPESFVLFLRQRQRQLGRGAE
modifications: also: homodimer via terminal PEG11 linker, terminus not given here, name suffix Ac, meaning not given here
[2]
  Kd: 3.6 nM

B3: MuSK1Ac PEG11 dimer (protein)
chain 1: YLPEFSWPESFVLFLRQRQRQLGRGAE
chain 2: YLPEFSWPESFVLFLRQRQRQLGRGAE
modifications: also: homodimer via PEG11 linker, attachment not given here, name suffix Ac, meaning not given here
[2]
  Kd: 1.5 nM

B4: MuSK9 PEG3 dimer (peptide)
chain 1: YWYLQPGYVNIVTSYHC
chain 2: YWYLQPGYVNIVTSYHC
modifications: not fully specified (N-terminus, C-terminus, bridges); cysteine pairing not given here; also: homodimer via PEG3 linker, attachment not given here
[2]
  Kd: 2.1 nM

B5: MuSK7 PEG11 dimer (peptide)
chain 1: YPSYHTNVVASLKRC
chain 2: YPSYHTNVVASLKRC
modifications: not fully specified (N-terminus, C-terminus, bridges); cysteine pairing not given here; also: homodimer via Bis-Mal-dPEG11 linker, attachment not given here
[2]
  Kd: 1.3 nM

B6: MuSK1Ac Term PEG3 dimer (protein)
chain 1: YLPEFSWPESFVLFLRQRQRQLGRGAE
chain 2: YLPEFSWPESFVLFLRQRQRQLGRGAE
modifications: also: homodimer via terminal PEG3 linker, terminus not given here, name suffix Ac, meaning not given here
[2]
  Kd: 6 nM

B7: MuSK1 (peptide)
chain: YLPEFSWPESFVLFLRQRQRQLGRGAE
modifications: not fully specified (bridges); also: thioether macrocycle stated, places not given here
[1]
  Kd: 2.2 nM

B8: MuSK1Ac PEG3 dimer (protein)
chain 1: YLPEFSWPESFVLFLRQRQRQLGRGAE
chain 2: YLPEFSWPESFVLFLRQRQRQLGRGAE
modifications: also: homodimer via PEG3 linker, attachment not given here, name suffix Ac, meaning not given here
[2]
  Kd: 4.4 nM

B9: MuSK9 PEG11 dimer (peptide)
chain 1: YWYLQPGYVNIVTSYHC
chain 2: YWYLQPGYVNIVTSYHC
modifications: not fully specified (N-terminus, C-terminus, bridges); cysteine pairing not given here; also: homodimer via Bis-Mal-dPEG11 linker, attachment not given here
[2]
  Kd: 3.9 nM

B10: MuSK4 PEG3 dimer (peptide)
chain 1: YFPTNVVSLLKSC
chain 2: YFPTNVVSLLKSC
modifications: not fully specified (N-terminus, C-terminus, bridges); cysteine pairing not given here; also: homodimer via PEG3 linker, attachment not given here
[2]
  Kd: 6.8 nM

B11: MuSK7-pal (peptide)
chain 1: YPSYHTNVVASLKRC
chain 2: YPSYHTNVVASLKRC
modifications: macrocyclic homodimer with palmitoyl group
[3]
  Kd: 0.9 nM
[4]
  Kd: 8.8 nM
[5]
  Kd: 2 nM

B12: MuSK7 PEG3 dimer (peptide)
chain 1: YPSYHTNVVASLKRC
chain 2: YPSYHTNVVASLKRC
modifications: not fully specified (N-terminus, C-terminus, bridges); cysteine pairing not given here; also: homodimer via PEG3 linker, attachment not given here
[2]
  Kd: 0.62 nM

## YLPEFSWPESFVLFLRQRQRQLGRGAE (also: name suffix Ac, meaning not given here) [MuSK1Ac]
[1]
  Kd: 1.6 nM

## {CH2CO}-YFPTNVVSLLKSC (thioether N-13 (inferred); not fully specified (C-terminus)) [MuSK4]
[1]
  Kd: 250 nM

Reference: patent US20260374820 (published 2026)
